Assay results taken from paper PMC1635313.

Target: T1, CRP (cAMP receptor protein, CAP) (Escherichia coli) (UniProt P0ACJ8)
T1 sequence: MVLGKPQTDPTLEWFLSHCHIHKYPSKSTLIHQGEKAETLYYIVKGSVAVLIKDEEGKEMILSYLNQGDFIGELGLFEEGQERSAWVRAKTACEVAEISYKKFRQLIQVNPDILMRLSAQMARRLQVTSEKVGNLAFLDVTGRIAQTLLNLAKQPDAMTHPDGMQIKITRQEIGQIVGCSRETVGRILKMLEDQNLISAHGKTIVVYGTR
Assay: EMSA

Sequence | binding
CCAGGTTTCCCAGCACTTTTAATCTGGCGGTTAATGCGACTCCGGCATCCGGTGAAACATCCGGTAAAGGATGCAATACGCCGTCGATACGCAAGCGGATGCGGTAGGC (double strand) [hofB coding fragment] | no binding
GCACGACAGGTTTCCCGACTGGAAAGCGGGCAGTGAGCGCAACGCAATTAATGTGAGTTAGCTCACTCATTAGGCACCCCAGGCTTTACACTTTATGCTTCCGGCTCGTATGTTGTGTGGAATTGTG (double strand) [lacZ promoter fragment] | binds
